What was measured:
[1] = biological target: T1, human DLL3 (Delta-like ligand 3) (human, UniProt Q9NYJ7 27-618); assay: flow cytometry, sdAb-Fc titrated on 293FS cells transfected with DLL3 (panel title DLL3-FL), APC anti-human Fc secondary
T1 construct: endogenous on SHP-77 cells; also called cell-surface DLL3
T1 sequence: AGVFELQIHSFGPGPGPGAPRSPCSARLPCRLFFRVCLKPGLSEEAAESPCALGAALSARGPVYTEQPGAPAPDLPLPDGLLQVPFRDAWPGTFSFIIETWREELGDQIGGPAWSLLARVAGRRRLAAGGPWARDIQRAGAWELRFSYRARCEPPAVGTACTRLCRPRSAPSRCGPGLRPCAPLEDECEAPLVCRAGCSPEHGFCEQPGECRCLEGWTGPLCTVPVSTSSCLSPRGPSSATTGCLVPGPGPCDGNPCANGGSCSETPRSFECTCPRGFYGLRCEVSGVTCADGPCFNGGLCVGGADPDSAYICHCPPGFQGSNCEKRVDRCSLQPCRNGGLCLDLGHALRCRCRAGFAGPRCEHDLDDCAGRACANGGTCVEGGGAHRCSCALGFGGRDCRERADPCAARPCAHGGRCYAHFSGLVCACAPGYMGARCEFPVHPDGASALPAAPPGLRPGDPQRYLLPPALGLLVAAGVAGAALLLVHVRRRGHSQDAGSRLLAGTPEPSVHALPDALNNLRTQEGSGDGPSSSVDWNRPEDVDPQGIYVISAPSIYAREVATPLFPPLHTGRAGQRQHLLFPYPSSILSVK
Procedure: FIGS. 2A-L set forth a series of graphs depicting the ability of sdAb and humanized variants thereof targeting DLL3 to bind cell surface DLL3.
(§1) Specificity and relative affinity were assessed for purified sdAb-Fcs on DLL3-expressing cells. […] A titration series of the fusion protein was incubated with the DLL3-expressing cell lines (approximately 2.5×10⁴ to 5×10⁴ cells/well) for 30 minutes at 4 degrees Celsius in FACS Buffer (PBS 1% BSA, 0.1% NaN₃ pH 7.4) in 96-well plates. Following three wash steps in FACS buffer, an APC-conjugated anti-human Fcγ specific secondary antibody (Jackson ImmunoResearch) was added and incubated for 30 minutes at 4 degrees Celsius. Following three additional wash steps in FACS buffer bound antibody was detected via flow cytometry (IQue Intellicyte).

[2] = biological target: T1, human DLL3 (Delta-like ligand 3); assay: flow cytometry, SHP-77 cells
[3] = biological target: T1, human DLL3 (Delta-like ligand 3); assay: flow cytometry, sdAb-Fc titrated on SHP-77 cells (DLL3 positive), APC anti-human Fc secondary
Procedure: as §1

B1: hz8E7v8 (Fc fusion)
VHH: EVQLVESGGGEVQPGGSLRLSCGPSEIITSDKSVGWYRQAPGKQRNLVAGISNVGSTNYAQSVKGRFTISRDNAKNTLYLQMSSLRAEDTAVYYCYARDFENEYWGQGTLVTVKP
notes: tested as VHH-human Fc; Fc not specified
binding result [1]: binds

B2: hz6C5v6 (Fc fusion)
VHH: EVQLVESGGGEVQPGGSLRLSCAASEITFSDKTVGWYRQAPGKQRVLVAVISNVDATNYAESVKGRFTISRDNAKNTVYLQMSSLRAEDTAVYYCHARDFENEYWGQGTLVTVKP
notes: as for B1
binding result [2]: binds

B3: hz8E7v10 (Fc fusion)
VHH: EVQLVESGGGEVQPGGSLRLSCGPSEIITSDKSVGWWRQAPGKQRELVAGISNVGSTNYAQSVKGRFTISRDNAKNTLYLQMSSLRAEDTAVYYCYARDFENEYWGQGTLVTVKP
notes: as for B1
binding result [1]: binds

B4: hz8E7v12 (Fc fusion)
VHH: EVQLVESGGGEVQPGGSLRLSCGPSEIITSDKSVGWWRQAPGKGRELVAGISNVGSTNYAQSVKGRFTISRDNAKNTLYLQMSSLRAEDTAVYYCYARDFENEYWGQGTLVTVKP
notes: as for B1
binding result [2]: binds

B5: hz8E7v16 (Fc fusion)
VHH: EVQLVESGGGEVQPGGSLRLSCGPSEIITSDKSMGWVRQAPGKQRNLVAGISNVGSTNYAQSVKGRFTISRDNAKNTVYLQMSSLRAEDTAVYYCYARDFENEYWGQGTLVTVKP
notes: as for B1
binding result [2]: binds

B6: hz8E7v9 (Fc fusion)
VHH: EVQLVESGGGEVQPGGSLRLSCGPSEIITSDKSVGWVRQAPGKQRNLVAGISNVGSTNYAQSVKGRFTISRDNAKNTLYLQMSSLRAEDTAVYYCYARDFENEYWGQGTLVTVKP
notes: as for B1
binding result [1]: binds

B7: hz8E7v15 (Fc fusion)
VHH: EVQLVESGGGEVQPGGSLRLSCGPSEIITSDKSMGWVRQAPGKQRNLVAGISNVGSTNYAQSVKGRFTISRDNAKNTLYLQMSSLRAEDTAVYYCYARDFENEYWGQGTLVTVKP
notes: as for B1
binding result [2]: binds

B8: hz8E7v13 (Fc fusion)
VHH: EVQLVESGGGEVQPGGSLRLSCGPSEIITSDKSMGWWRQAPGKQRNLVAGISNVGSTNYAQSVKGRFTISRDNAKNTVYLQMSSLRAEDTAVYYCYARDFENEYWGQGTLVTVKP
notes: as for B1
binding result [2]: binds

B9: hz8E7v11 (Fc fusion)
VHH: EVQLVESGGGEVQPGGSLRLSCGPSEIITSDKSVGWFRQAPGKQRNLVAGISNVGSTNYAQSVKGRFTISRDNAKNTLYLQMSSLRAEDTAVYYCYARDFENEYWGQGTLVTVKP
notes: as for B1
binding result [1]: binds

B10: hz8E7v14 (Fc fusion)
VHH: EVQLVESGGGEVQPGGSLRLSCGPSEIITSDKSVGWVRQAPGKQRNLVAGISNVGSTNYAQSVKGRFTISRDNAKNTVYLQMSSLRAEDTAVYYCYARDFENEYWGQGTLVTVKP
notes: as for B1
binding result [2]: binds

B11: hz8E7v6 (Fc fusion)
VHH: EVQLVESGGGEVQPGGSLRLSCGPSEIIFSDKSVGWWRQAPGKQRNLVAGISNVGSTNYAQSVKGRFTISRDNAKNTLYLQMSSLRAEDTAVYYCYARDFENEYWGQGTLVTVKP
notes: as for B1
binding result [1]: binds

B12: hz8E7v5 (Fc fusion)
VHH: EVQLVESGGGEVQPGGSLRLSCGPSEIITSDKSVGWWRQAPGKQRNLVAGISNVGSTNYAQSVKGRFTISRDNAKNTVYLQMSSLRAEDTAVYYCYARDFENEYWGQGTLVTVKP
notes: as for B1
binding result [1]: binds

B13: L10D9 (Fc fusion)
VHH: EVQLVQSGGGLVQAGGSLRLSCAASGSILSINAMGWYRQPPGKQREMVAGFTGDGNTIYADSVKGRFTISRDNAKNTVYLQMNSLKPEDTAVYYCAADVQLFSRDYEFYWGQGTQVTVKP
notes: tested as VHH-human Fc
binding result [3]: binds

B14: hz10D9v12 (Fc fusion)
VHH: EVQLVESGGGEVQPGGSLRLSCAASGSIFSIYAMGWYRQAPGKQRELVAGFTGDTNTIYAESVKGRFTISRDNAKNTVYLQMSSLRAEDTAVYYCAADVQLFSRDYEFYWGQGTLVTVKP
notes: as for B1
binding result [2]: binds

B15: hz10D9v11 (Fc fusion)
VHH: EVQLVESGGGEVQPGGSLRLSCAASGFIFSSYAMGWYRQAPGKQRELVAGFTGDTNTIYAESVKGRFTISRDNAKNTVYLQMSSLRAEDTAVYYCAADVQLFSRDYEFYWGQGTLVTVKP
notes: as for B1
binding result [2]: binds

B16: hz10D9v13 (Fc fusion)
VHH: EVQLVESGGGEVQPGGSLRLSCAASGFIFSINAMGWYRQAPGKQRELVAGFTGDTNTIYAESVKGRFTISRDNAKNTVYLQMSSLRAEDTAVYYCAADVQLFSRDYEFYWGQGTLVTVKP
notes: as for B1
binding result [2]: binds

B17: hz10D9v10 (Fc fusion)
VHH: EVQLVESGGGEVQPGGSLRLSCAASGSIFSSNAMGWYRQAPGKQRELVAGFTGDTNTIYAESVKGRFTISRDNAKNTVYLQMSSLRAEDTAVYYCAADVQLFSRDYEFYWGQGTLVTVKP
notes: as for B1
binding result [2]: binds

B18: 3B4 (Fc fusion)
VHH: QVQLQQSGGGLVQAGGSLRLSCAASGSDFSINAMGWYRQGELVAGFTGDGNPIYADSVKGRFTISRGNAENTVSLQMNSLKPEDTAVYYCAADVKIGGDYEWYWGQGTQVTVKP
notes: as for B1
EC50 (read off the curve) [3]: ~0.06 nM

B19: 3B12 (Fc fusion)
VHH: QVQLQESGGGLVQSGGSLRLSCAASGFSLDDYTIGWFRQAPGKEREGVSCISSSGGSTYYADSVKGRFTISRDNAENTVYLQMNSLKPEDTAVYYCATYCPVTIADELGFDYWGQGTLVTVKP
notes: as for B1
binding result [3]: binds

B20: hz5A8v5 (Fc fusion)
VHH: EVQLVESGGGEVQPGGSLRLSCAASGSIFSINAMGWYRQAPGKQRELVAVVSSDGRTTVAPSVKGRFTISRDNAKNTVYLQMSSLRAEDTGVYYCGVREWYSDSDWRDYEGQGTLVTVKP
notes: as for B1
EC50 (read off the curve) [1]: ~3 nM

B21: hz5A8v10 (Fc fusion)
VHH: EVQLVESGGGEVQPGGSLRLSCAASGSIFSINAMGWYRQAPGKQRELVAVVSSDARTTVAPSVKGRFTISRDNAKNTVYLQMSSLRAEDTAVYYCGVREWYSDADWRDYEGQGTLVTVKP
notes: as for B1
binding result [2]: binds

B22: hz5A8v12 (Fc fusion)
VHH: EVQLVESGGGEVQAGGSLRLSCAASGSIFSINAMGWYRQAPGKQRELVAVVSSDGRTTVAPSVKGRFTISRDNAKNTVYLQMSSLRAEDTAVYYCGVREWYSDSDWRDYEGQGTLVTVKP
notes: as for B1
binding result [2]: binds

B23: hz5A8v11 (Fc fusion)
VHH: EVQLVESGGGEVQPGGSLRLSCAASGSIFSINAMGWYRQAPGKQREWVAVVSSDGRTTVAPSVKGRFTISRDNAKNTVYLQMSSLRAEDTAVYYCGVREWYSDSDWRDYEGQGTLVTVKP
notes: as for B1
binding result [2]: binds

B24: L5A8 (Fc fusion)
VHH: QVQLVQSGGGLVQAGESLRLSCAASGSIFSINAMGWYRQVLGKQRELVAVVSSDGRTTVAPSVKGRFTISRDNAKNTVSLQMNSLKPEDTGVYYCGVREWYSDSDWRDYEGQGTQVTVKP
notes: as for B1
EC50 (read off the curve) [1]: ~10 nM
